Laboratory results as given in paper PMC8508685, “The Ephb2 Receptor Uses Homotypic, Head-to-Tail Interactions within Its Ectodomain as an Autoinhibitory Control Mechanism” (International Journal of Molecular Sciences, 2021).
One block for each molecule: values may come before it.

Legend:
[1] = target: human EphB2 full-length N482Q (human) (UniProt P29323)
[2] = target: human EphB2 full-length Q472A/Y473A/E480A/Y481A (human) (UniProt P29323)
[3] = target: human EphB2 full-length Y481E (human) (UniProt P29323)
[4] = target: the molecule itself; experiment: crystal structure; unliganded EphB2-ECD at 10 mg/mL in HBS, hanging drop at room temperature, 1.1 M Na Succinate, 0.1 M Na Acetate pH 4.8, 5% MPD, 3% 1,6-Hexanediol; 3.1 Å; head-to-tail contact between neighbouring molecules in the crystal

Molecule: human EphB2 full-length Q472A/Y473A/E480A/Y481A (from UniProt P29323 19-1055) (receptor)
EphB2 phosphorylation in HEK293 cells after ephrin stimulation (anti-phosphotyrosine IP, anti-EphB2 blot), band intensity compared with the wild-type receptor (% higher than wild type) [2]: 46

B1: mouse EphB2 extracellular domain (ECD) (residues 19-543) (domain or fragment, UniProt P54763 19-543, looked up)
chain: VEETLMDSTTATAELGWMVHPPSGWEEVSGYDENMNTIRTYQVCNVFESSQNNWLRTKFIRRRGAHRIHVEMKFSVRDCSSIPSVPGSCKETFNLYYYEADFDLATKTFPNWMENPWVKVDTIAADESFSQVDLGGRVMKINTEVRSFGPVSRNGFYLAFQDYGGCMSLIAVRVFYRKCPRIIQNGAIFQETLSGAESTSLVAARGSCIANAEEVDVPIKLYCNGDGEWLVPIGRCMCKAGFEAVENGTVCRGCPSGTFKANQGDEACTHCPINSRTTSEGATNCVCRNGYYRADLDPLDMPCTTIPSAPQAVISSVNETSLMLEWTPPRDSGGREDLVYNIICKSCGSGRGACTRCGDNVQYAPRQLGLTEPRIYISDLLAHTQYTFEIQAVNGVTDQSPFSPQFASVNITTNQAAPSAVSIMHQVSRTVDSITLSWSQPDQPNGVILDYELQYYEKELSEYNATAIKSPTNTVTVQGLKAGAIYVFQVRARTVAGYGRYSGKMYFQTMTEAEYQTSIKEKLPL
modifications: glycosylated at N265, N336, N428 and N482
notes: EphB2 (ephrin type-B receptor 2), mouse, extracellular domain (LBD, CRD, FN1, FN2), residues 19-543; also called EphB2-ECD; EphB2 ECD; not shown: Fc (human), C-terminal, cleaved
binding result [4]: binds

The remaining lines, values ahead:

EphB2 phosphorylation in HEK293 cells after ephrin stimulation (anti-phosphotyrosine IP, anti-EphB2 blot), band intensity compared with the wild-type receptor (% higher than wild type) [1]: 40
Molecule: human EphB2 full-length N482Q (from UniProt P29323 19-1055) (receptor)

EphB2 kinase domain phosphorylation in HEK293 cells (anti-phosphotyrosine IP, anti-EphB2 blot), compared with the wild-type receptor (% lower than wild type) [3]: 56
Molecule: human EphB2 full-length Y481E (from UniProt P29323 19-1055) (receptor)
